Columns and labels:
[1] = Pharmacokinetic experiment in mice, plasma and brain, LC-MS/MS; assay type: in vivo, C57Bl/6J mice
Procedure: In a pharmacokinetic experiment in C57Bl/6J mice (3 animals per timepoint; schedule shown below) two example compounds, Cy1 (4-HO-EPT glycoside) and Cy2 (4-HO-DMT glycoside) were dosed at two different concentrations (20 mg/kg dose shown here) and the parent compounds and their de-glycosylated forms, 4-HO-EPT and psilocin (4-HO-DMT), respectively, were measured by LC-MS/MS in plasma and brain tissue samples. For comparison, psilocybin was dosed at 1.5 mg/kg orally and plasma and brain tissue concentrations of psilocin (4-HO-DMT) were measured. Samples were collected at four or five different timepoints (from 10-minutes post dosing up to 6-hours post dosing) following the test article administration.
Schedule of pharmacokinetic experiment shown below.
Results are reported in ng/mL for the concentration in plasma and in ng/g tissue for the concentration measured in brain samples.
Results: The graphs in FIG. 35, FIG. 36, FIG. 37, and FIG. 38 display the time course of concentrations of compounds as indicated. For each time point the data for the individual animals are plotted.

[2] = Glycosylation of 4-HO-MET by GLY enzymes (UDP-glucose), LC-UV/MS; assay type: biochemical; conditions: 0.5 mM 4-OH-MET, 1.25 mM UDP-glucose, 25% (v/v) GLY enzyme, 24 h at 30° C.; estimate from UV peak areas
Procedure: 4-HO-MET was dissolved in 100% (v/v) DMSO to a concentration of 10 mM. The solution was stored at −20° C. prior to use.
FastAP phosphatase (1 U/uL) from ThermoFisher Scientific (catalog no. EF0651).
GLY enzyme suspensions contain 10 mM Tris-HCl at pH7.4, 250 mM imidazole and 50% (v/v) glycerol.
(§1) The assay conditions were: • 100 mM Tris-HCl, pH 7.4 • 5 mM MgCl2 • 1 mM KCl • 1.25 mM UDP-glucose • 0.5 mM 4-OH-MET • 5% (v/v) DMSO • 0.1 U/uL Fast AP phosphatase • 25% (v/v) GLY enzyme
(§2) Incubation was 24 house at 30° C. Reactions were terminated adding 3 volumes of 75% (v/v) ethanol.
(§3) LC separation was performed using an Agligen 1290 Infinity II UHPLC equipped with a Phenomenex Kinetex XB-C18 column (1.7 um, 100 angstroms, 100×2.1 mm) and 4-HO-MET was detected by absorbance at 210 nm and 268 nm with an Agilent 1260 Infinity II DAD.
(§4) 0.1% Formic acid in water (A) and 0.1% Formic acid in acetonitrile (B) were used as the mobile phases for the elution gradient, with a flow rate of 0.4 ml/min. Retention time for 4-HO-MET using this type of instrument under these condition was 2.6 min. The system was coupled to an Ultivo Triple Quadrupole MS. To verify the presence of possible glycoside products, as SIM (Selected Ion Monitoring) method was used on the MS to analyse for the m/z 381 (theoretical mass to chart ratio of 4-HO-MET-glucoside) and m/z 219 (theoretical mass to charge ratio of 4-HO-MET).
As standard, 4-HO-MET solutions at a concentrations of 500, 250, 125, 62.5, and 31.25 uM were prepared from the 10 mM stock and used for caliboration.
A representative example of the chromatograms obtained with a wavelength of 268 nm for the standard solutions resuspended in the reaction buffer, and the corresponding MS-SIM signal, is shown in FIG. 16. The peak corresponding to 4-HO-MET is indicated.
When analyzing the GLY reactions, 30 of them gave an additional peak with retention time 2.2 min (i.e. in the expected region for a 4-HO-MET glucoside) and molecular mass compatible with the expected glucoside product, together with a corresponding decrease in substrate concentration, compared to the no-enzyme controls.
The method was repeated using various GLY enzymes to produce 4-HO-MET glucosides.
(§5) The enzymes giving the additional peak putatively corresponding to the 4-HO-MET-β-D-glucoside are listed below. […] A correct quantification of the product is not possible without a standard for the specific molecule. However, based on the assumption that the ratio area-to-concentration in the UV chromatograms will be similar to 4-HO-MET, estimates of the relative abundance for the additional peak are also given, expressed as percentage of converted 4-HO-MET. GLY enzymes hits are ranked according to their estimated conversion efficiency.

[3] = Glycosylation of 4-OH-EPT by GLY enzymes (UDP-glucose), LC-UV/MS; assay type: biochemical; conditions: conditions of Examples 1 and 2 repeated for 4-OH-EPT; estimate from UV peak areas
Procedure: as §1, §2, §3, §4, §5
The experiments described in Examples 1 and 2 above were repeated for 4-OH-EPT.
Below is the corresponding data for 4-OH-EPT.

[4] = Glycosylation of 4-OH-MiPT by GLY enzymes (UDP-glucose), LC-UV/MS; assay type: biochemical; conditions: conditions of Examples 1 and 2 repeated for 4-OH-MiPT; estimate from UV peak areas
Procedure: as §1, §2, §3, §4, §5
(§6) The experiments described in Examples 1 and 2 above were repeated for 4-OH-MiPT, 4-HO-DMT and 5-HO-DMT
Below is the corresponding data for 4-OH-MiPT.

[5] = Glycosylation of 4-OH-DMT by GLY enzymes (UDP-glucose), LC-UV/MS; assay type: biochemical; conditions: conditions of Examples 1 and 2 repeated for 4-HO-DMT; estimate from UV peak areas
Procedure: as §1, §2, §3, §4, §5, §6
(§7) Below is the corresponding data for 4-OH-DMT and 5-HO-DMT.

[6] = Glycosylation of 5-HO-DMT by GLY enzymes (UDP-glucose), LC-UV/MS; assay type: biochemical; conditions: conditions of Examples 1 and 2 repeated for 5-HO-DMT
Procedure: as §1, §2, §3, §4, §5, §6, §7

## CCCN(CC)CCc1c[nH]c2cccc(O[C@@H]3O[C@H](CO)[C@@H](O)[C@H](O)[C@H]3O)c12 [Cy1, 4-HO-EPT glycoside]
[1]; higher doses (20 mg/kg p.o.), brain, as compared to psilocybin 1.5 mg/kg p.o.
  period of exposure in brain: extended period of exposure
[1]; higher doses (20 mg/kg p.o.), plasma, as compared to psilocybin 1.5 mg/kg p.o.
  period of exposure in plasma: extended period of exposure
[1]; p.o. single dose, brain, as compared to the administration of psilocybin 1.5 mg/kg p.o.
  time to peak brain concentration: extended
[1]; p.o. single dose, plasma, as compared to the administration of psilocybin 1.5 mg/kg p.o.
  time to peak plasma concentration: extended

B1: GLY70: glycosyltransferase (UGT), SEQ ID NO: 2 (protein)
chain: MAKQQEAELIFIPFPIPGHILATIELAKRLISHQPSRIHTITILHWSLPFLPQSDTIAFLKSLIETESRIRLITLPDVQNPPPMELFVKASESYILEYVKKMVPLVRNALSTLLSSRDESDSVHVAGLVLDFFCVPLIDVGNEFNLPSYIFLTCSASFLGMMKYLLERNRETKPELNRSSDEETISVPGFVNSVPVKVLPPGLFTTESYEAWVEMAERFPEAKGILVNSFESLERNAFDYFDRRPDNYPPVYPIGPILCSNDRPNLDLSERDRILKWLDDQPESSVVFLCFGSLKSLAASQIKEIAQALELVGIRFLWSIRTDPKEYASPNEILPDGFMNRVMGLGLVCGWAPQVEILAHKAIGGFVSHCGWNSILESLRFGVPIATWPMYAEQQLNAFTIVKELGLALEMRLDYVSEYGEIVKADEIAGAVRSLMDGEDVPRRKLKEIAEAGKEAVMDGGSSFVAVKRFIDGL
[2]
  4-OH-MET GLY % (percentage of converted 4-HO-MET): 98.6%
[3]
  4-OH-EPT GLY % (percentage of converted 4-OH-EPT): 80.5%
[4]
  4-OH-MiPT GLY % (percentage of converted 4-OH-MiPT): 58.4%
[5]
  4-OH-DMT GLY %: 89.3%
[6]
  5-OH-DMT GLY %: 6%

B2: GLY170: glycosyltransferase (UGT), SEQ ID NO: 28 (protein)
chain: MKKINLVVIPFAGVGHLVSTIEFIKRLLSRDDRFSVTILVIKSPLEHSLDPNTSPPSLPSSHPHIQFINVRSLNPPPIEVFLKSPEKYFTLYIESYKLKVKEIIVDHVLPNSAPLGGLFLDMFSTSMVDVAQELGVPSYVFLTSGAGFLGFVLYLQTRHDRGGAEFELSDIESYIPSYVNPVPSRVLPSLAFNREGGYVSFVNVARNMKKTKGIIVNTVFELESHAISSLLMDGATPPVYAVGPLIDHKGESHFRTDQAKRDKIIKWLDDQPTKSVIFLCFGSFGSFGVPQLREIAIGLEQSGARFLWSIRQAKSIFEMPIECEKPEEFLPQGFLDRTKELGMICGWTPQIEVLAHRAIGGFVSHCGWNSILESLWHGVPIVTWPLYAEQQINAFQIVKDLGLGVELRLDYRRDGGDVDVVMRDEIEKAVRYVMDGDSEVRQRVQEASEKCRKAVVEGGSSFSSIGSLIEAILANIS
[2]
  4-OH-MET GLY % (percentage of converted 4-HO-MET): 31.6%
[3]
  4-OH-EPT GLY % (percentage of converted 4-OH-EPT): 23.4%
[4]
  4-OH-MiPT GLY % (percentage of converted 4-OH-MiPT): 38.8%
[5]
  4-OH-DMT GLY %: 15.7%

B3: GLY74: glycosyltransferase (UGT), SEQ ID NO: 6 (protein)
chain: MRNVELIFIPTPTVGHLVPFLEFARRLIEQDDRIRITILLMKLQGQSHLDTYVKSIASSQPFVRFIDVPELEEKPTLGSTQSVEAYVYDVIERNIPLVRNIVMDILTSLALDGVKVKGLVVDFFCLPMIDVAKDISLPFYVFLTTNSGFLAMMQYLADRHSRDTSVFVRNSEEMLSIPGFVNPVPANVLPSALFVEDGYDAYVKLAILFTKANGILVNSSFDIEPYSVNHFLQEQNYPSVYAVGPIFDLKAQPHPEQDLTRRDELMKWLDDQPEASVVFLCFGSMARLRGSLVKEIAHGLELCQYRFLWSLRKEEVTKDDLPEGFLDRVDGRGMICGWSPQVEILAHKAVGGFVSHCGWNSIVESLWFGVPIVTWPMYAEQQLNAFLMVKELKLAVELKLDYRVHSDEIVNANEIETAIRYVMDTDNNVVRKRVMDISQMIQRATKNGGSSFAAIEKFIYDVIGIKP
[2]
  4-OH-MET GLY % (percentage of converted 4-HO-MET): 36%
[3]
  4-OH-EPT GLY % (percentage of converted 4-OH-EPT): 7%
[4]
  4-OH-MiPT GLY % (percentage of converted 4-OH-MiPT): 19.3%
[5]
  4-OH-DMT GLY %: 22.4%

B4: GLY153: glycosyltransferase (UGT), SEQ ID NO: 20 (protein)
chain: MAETDSPPHVAILPSPGMGHLIPLVELAKRLVHQHNLSVTFIIPTDGSPSKAQRSVLGSLPSTIHSVFLPPVNLSDLPEDVKIETLISLTVARSLPSLRDVLSSLVASGTRVVALVVDLFGTDAFDVAREFKASPYIFYPAPAMALSLFFYLPKLDEMVSCEYSEMQEPVEIPGCLPIHGGELLDPTRDRKNDAYKWLLHHSKRYRLAEGVMVNSFIDLERGALKALQEVEPGKPPVYPVGPLVNMDSNTSGVEGSECLKWLDDQPLGSVLFVSFGSGGTLSFDQITELALGLEMSEQRFLWVARVPNDKVANATYFSVDNHKDPFDFLPKGFLDRTKGRGLVVPSWAPQAQVLSHGSTGGFLTHCGWNSTLESVVNAVPLIVWPLYAEQKMNAWMLTKDVEVALRPKASENGLIGREEIANIVRGLMEGEEGKRVRNRMKDLKDAAAEVLSEAGSSTKALSEVARKWKNHKCTQDCN
[2]
  4-OH-MET GLY % (percentage of converted 4-HO-MET): 6%
[6]
  5-OH-DMT GLY %: 5%

B5: GLY91: glycosyltransferase (UGT), SEQ ID NO: 12 (protein)
chain: MGKQEDAELVIIPFPFSGHILATIELAKRLISQDNPRIHTITILYWGLPFIPQADTIAFLRSLVKNEPRIRLVTLPEVQDPPPMELFVEFAESYILEYVKKMVPIIREALSTLLSSRDESGSVRVAGLVLDFFCVPMIDVGNEFNLPSYIFLTCSAGFLGMMKYLPERHREIKSEFNRSFNEELNLIPGYVNSVPTKVLPSGLFMKETYEPWVELAERFPEAKGILVNSYTALEPNGFKYFDRCPDNYPTIYPIGPILCSNDRPNLDLSERDRILKWLDDQPESSVVFLCFGSLKSLAASQIKEIAQALELVGIRFLWSIRTDPKEYASPNEILPDGFMNRVMGLGLVCGWAPQVEILAHKAIGGFVSHCGWNSILESLRFGVPIATWPMYAEQQLNAFTIVKELGLALEMRLDYVSEYGEIVKADEIAGAVRSLMDGEDVPRRKLKEIAEAGKEAVMDGGSSFVAVKRFIDGL
[2]
  4-OH-MET GLY % (percentage of converted 4-HO-MET): 20.7%
[3]
  4-OH-EPT GLY % (percentage of converted 4-OH-EPT): 5.4%
[6]
  5-OH-DMT GLY %: 1%

B6: GLY163: glycosyltransferase (UGT), SEQ ID NO: 22 (protein)
chain: MTGELIFIPMPSLSHIASTMEIAKLLVHRDDRLSITVLLISSQYTTSITTYINSLIASSDYDRIRFIHLPELDSEEEPKRPFMSVIDDNKPIVKEAVTNLALSFDPSHRLAGFVIDMFCVGMIEVADELGLPSYPFFTSSTSFLALQFHVQTLADEEEVDITEFKNSDVMLPIPGLVNPLPAKTILPSAMLNKDWLPYVLNGARGFRKTKGIMVNSFAEIESNAVTSLSNSTVPPVYTVGPIINFKGDGQDSDTCTAHKYSNIMTWLDDQPPSSVLFLCFGSLGSFDEEQVKEIARALEGSGHRFLWSLRRPPPKDKTMSFPTEYENFEEVLPEGFVDRTVGMGKVMGWAPQVAVLAHPSIGGFVTHCGWNSILESVWFGVPMAAWPLYAEQQFNAFHMVVELGLAVEIKMDYRKDYAILGLQEERVSAEVIEKGIRCLMEEDNDARKKVKEMSEISRKALMDGGSSHAVLGQFIEDVMNNISA
[2]
  4-OH-MET GLY % (percentage of converted 4-HO-MET): 40.5%
[3]
  4-OH-EPT GLY % (percentage of converted 4-OH-EPT): 46.3%
[4]
  4-OH-MiPT GLY % (percentage of converted 4-OH-MiPT): 61.6%
[5]
  4-OH-DMT GLY %: 10.6%
